Reference: the DeepSol protein solubility set

Experiment: soluble on expression in E. coli; label from the status in PepcDB or PDB records

Sequence | soluble on expression in E. coli
MISRIHIEEFRDIGDLELFFLPGVNLLIGDNGSGKTSVLKACQYVLGTFFCGFKMDHTPTWTQLTPEAKDFRRRVSSDGDELMKHPIKFNFDLRYEENGQNPIELTDQILTKRNTLGRALTTTFQDHQDYTKGLLEGYATDEGRYRPLPVFVFYSVEDIHTKRKVSHSLFQKYRHMASFGYYHALTENAFLDFWIKRMLILREEEQAGNHELAVVRGALLSALGTDGAGVLQDLSIRINKKAVYWKLLDGREISSEHLPDGLRRVISIVVDLAFRCALLNQTLYQSDSALKSEGTVLIDEIDLHLHPRLQASILKGLRKAFPRLQFIITSHAPMVMSSVDADDKYNIVYKMSYNQEMSQYEALKQSTYGLDVSTIMRMILGLAPRDKQVDERLTHLFDLIDLEKYSEATIALQSLQDQFDDSLPELSKASVMLHFLSSEQNEENH | not soluble
MISSLAVEFGALRLACTSKIVMATRNMPARGTKPLPRHLWDMSDLEEKTSGQYTHKPLRINRLGGRDPETGRKVNQHIGGGVKFDYFMIDFHRRGPADQGATYDERILEIRRDPNRTCHIALCAGINGKRWILATENMKAGDVISTSGHLSENPVIGVEGNAYPIGSLAAGTVINSIERYPTMDSETFVKAAGTSATIVRHQGDFTVVKLPHKHEFSLHRTCMATVGRLSHADIDGKIFGSAQMHRRFGYKMSSGLFHKKDGYFGRKVRALPPVRILDTPPQAPPPNQRFTLSKKDLSGLHGHAKVHNLIPAGYSTRDYPE | not soluble
MISVVIPAKDEVGNIGPLMKEICQALQGVTEFEILVVDDGSQDDTFGEVIHTAELMLCNAKAIRHERSTGQSTAISTGVLHARGQYIVTLDADGQNDPADIPAMLAQLPQIHAEHFCIAGYRKNRKDTAWKRFQSRFANKVRDALLHDGVPDTGCGLKLFPRETFLRMPYFDHMHRYIPALVRRMGGEVFISVVNHRDRQLGVSKYTAWNRVWVGIVDIMGVIWLGRRAKIAKVARSETRWHDLEHHHHHH | soluble
MITKRQLSILNAIVEDYVDFGQPIGSKTLIHRHHLDVSPATIRNEMKQLEEMHFIEKTHTSSGRVPSESGIRYYVNRLLEQTSHQSQNKIQRLNQLLIENHYDSSTALTNFAHELSMKSQYATLVVRPNHKQDVINDIHLIRANNHLIILVMVFSSGHVENIHFVSHAQLNNINLNKIANFLTEHFSFNRKVLTQNIESYFSQKEELLLANEVVEMINLQIGNQSNSIYMGGKVKLIDALNESNVSSIQPILQYIESNKITELLEDISTSQINVRIGKEIDDSLSDISIVTSQYHFDESLKGQIAVIGPTAMHYQNVIQLLNRIW | not soluble
MITLWGRNNSTNVKKVLWTLEELELPYDQILAGGKFGVNQDADYLAMNPNGLVPLLKDDETDLLLWESNAIVRYLAAQYGQNRLWVDNPARRAEGEKWMDWANQTLSPAHRVILMGLVRTPPEKRDQAAIEAGIEKCDSLFALLDDALAHQPWFSGDNFGTGDIAIAPFVYNLLNVGLKWTPRPNLERWYQQLTERPAFRKVVMIPVT | not soluble
MITMKIEDVYIWDINARWLGVTPYQLMENAGASVARVIEEKFGKNLKIAVFCGTGNNGGDGFVAARHLSYENDVTVFLIGEEVKIRSEEAKLNWNILKNLDFVKIKVLKDSSQIRELDLSEFDIIVDALLGAGTRGKPREPIKSAIEKINEYSGKVKIVSIDLPSGYPSEIRVKADFAVTFQWDKEEFKDFKRIIAKIGYPKELKYLVGPAHVKFAYKRKGEHKGQNGKLLIIGGSENYYGAPVLAASAAKHLVDLVFLLLPQNAARRVNDPDLIVREVDGLNFTPEHIKSALELVEKVDAIVIGPGIGVREETKEFVKGIIERVEKPIVVDADGLKIIAEFKDILKGKEIVLTPHAGEFKLLFGEKVPEDLVEKGKVVMRRAKEIGATILLKGKYDVISDGKVWLYNKTGNRGMTTGGTGDVLAGTVGAFLALGNKALKAAAAGAFLVGFAGDLVMEEKGEAFTARDVAEKIPIALKKIIEF | soluble
MIVFSSLQIRRGVRVLLDNATATINPGQKVGLVGKNGCGKSTLLALLKNEISADGGSYTFPGSWQLAWVNQETPALPQAALEYVIDGDREYRQLEAQLHDANERNDGHAIATIHGKLDAIDAWSIRSRAASLLHGLGFSNEQLERPVSDFSGGWRMRLNLAQALICRSDLLLLDEPTNHLDLDAVIWLEKWLKSYQGTLILISHDRDFLDPIVDKIIHIEQQSMFEYTGNYSSFEVQRATRLAQQQAMYESQQERVAHLQSYIDRFRAKATKAKQAQSRIKMLERMELIAPAHVDNPFRFSFRAPESLPNPLLKMEKVSAGYGDRIILDSIKLNLVPGSRIGLLGRNGAGKSTLIKLLAGELAPVSGEIGLAKGIKLGYFAQHQLEYLRADESPIQHLARLAPQELEQKLRDYLGGFGFQGDKVTEETRRFSGGEKARLVLALIVWQRPNLLLLDEPTNHLDLDMRQALTEALIEFEGALVVVSHDRHLLRSTTDDLYLVHDRKVEPFDGDLEDYQQWLSDVQKQENQTDEAPKENANSAQARKDQKRREAELRAQTQPLRKEIARLEKEMEKLNAQLAQAEEKLGDSELYDQSRKAELTACLQQQASAKSGLEECEMAWLEAQEQLEQMLLEGQSN | soluble
MIVMATCLLPDETDDACARNPWISHELVTSTVGPGDGLDLRAACSTGTLISGGCSADTFPDDELSLMRSGFAPDNRDEWLCSFKSLHESVTYEVATMAFCLNEDPLPAECGCCPPLAEQLTIRQTNEPLRNGPNRLEASCEDDEFLLIGNCMLDVPAVSEVESVTMFRYGYPPTDEHPDGDYSKWGCSWHNPTGYTPRALANAVCLPAQ | not soluble
MIVSFMVAMDENRVIGKDNNLPWRLPSELQYVKKTTMGHPLIMGRKNYEAIGRPLPGRRNIIVTRNEGYHVEGCEVAHSVEEVFELCKNEEEIFIFGGAQIYDLFLPYVDKLYITKIHHAFEGDTFFPEMDMTNWKEVFVEKGLTDEKNPYTYYYHVYEKQQLEHHHHHHHH | soluble
MIYEIGGHEVSIVRATPGLAKSYYDLLMELYEDPNSYILVNYSKDPPQLESIVERSKNWNVHPHYMHFALYKDKVVGFAGSLLGPDYGPEVQPHIAEIYYGVSKGWRKTGLIYALLYTALSDINAKIVKATAYVENLPSINVLLKIGLRIIAVLEENDFHYMSGKMHDDYLFRGFRSDCLNRLPGLLEKHGISVIR | not soluble
MIYEIKFAHGESNVFAISDIELAPQTEVILRSDKGNFYGKIVREISEEANLEIHHTIVREVNEDDLQVIAKLEERSKQAKDKVRQLVIEQGLEMKIIDVAYNFDQMQLFISFTAENRVDFRLLLRELATTFRIRIELRQIGPRDAAKIHGGLGPCGRPLCCSEFVYEFPNVSIKMAKNQNLSLKQNKLNGLCGRLMCCLTYEDSFYKEAQQLFPDFGEFVTTSEGKGKVVGLNVLKNRVKIRFGEYSKDFELAEIEVNHGLEHHHHHH | soluble
MIYPYNSTISLGTVSLNVTDLAKMTTFYTSIIGLQVLSQDTTSRQLTTDGKTVILELRQTPLPGDKAYGLYHTAFLVPDRHSLGLVLNHFLTRSISLEGAADHGHSEAIYLSDPEGNGIEIYHDKAVEHWDIRDNGQIIGVTEPTDTKSILEQLTDIPKHFLLAQDTRIRHVHLSVKNALASSLLYQKVFDLGDKMTIPSASWIASGNYYHHLAFNHWSAPYLKKHQEGAPGLAFLTIHIETPLLFSATLKKARLHGLAILQEDSSSFTTEDEEGIRVNVILGQD | not soluble
MKACGIIVEYNPFHNGHRYHAQQARQQSGAEVVIAIMSGNFLQRGEPALLDKWARAEEALQNGVDLVIELPTAWSVQSADYFAKGGIKLLQALQCESLCFGTDSTSAIDYAAFGQFVQENQSLIDQTFHALTDKQLSYPQKMTAVFRQVYPESRFDFSSPNHILGMSYAKENATYPTPMTLYPIARKQAGFHDATISGKVASATAIRQSVFQQEITQVLPTVPSITAQHLQTQTMISWENYWPFLKYKIVQSSLEELQAIYQMTEGLEYRLKDQIQAAGSFHELMERMKTKRYTWTRLQRLATYILLNMTKEEVETVWQNSYLHVLGFTPKGQAYLKETKAQIQLPVISKVSKENRAMLSLDIRANQLYQMGDSSLKEQNFGRFPLRFSPDT | not soluble
MKAEIISVGTEILLGDIVNTNSQFLAKELASLGIEVYHQSTVGDNKQRLLECFDESLKRSDFVITTGGLGPTGDDMTKETAAEYFGQKLELHKPSLEVLESFFVKTGKKMAENNMKQVYFPKDAIVLKNNNGTAPGAILKKDGKFIIVLPGPPREMKAMFNESVKPYLQQFTNEMLVSKTLRLYGIGESNLELEILDIINEQTNPTVALYAKELEVTIRITAKAENEREAFKLIKPVEEKIKSRVGKYVYTEGDISISEGETALEDAVSKLLVEKNLTIAVAESCTGGLVSSSLINYPGISSVFLEGCVTYSNDSKMKRLGVKRETLEEFGAVSEQTAIEMAEGVAKGLKANIGISTTGVAGPGGGTKEKPVGLVYTAIYINGKTIVKKNIFNGDRRKIRLRATRDLLNELRIQLEKL | not soluble
MKAIIISIGDELLKGHRVNTNAPFIARELGNIGIPVTRIITCSDDPQAIRDSVTLALTEAEAVFVTGGLGPTNDDRTRDAVRALLGRGLALDEPSFERIADYFRRRNRPVTEVMKDQAMVIEGSIAIPNTKGTAPGMIIECAPRFAGRHLVLMPGVPAEMEAMMRLTVVPFFAPLSGAFIRHTPVMTMGIGETQLADMIVEVEDSLPSGTTLAYLPHAAGVSLMVSTSGA | not soluble
MKAKDVKLLARYLEMLKDPNIIKTQDVFTVIRYISYNSYGKTMAWNWIQLNWDYLVSRFTINDRYLGRIVTIAEPFNTELQLWQMQSFFAKYPNAGAGAKPREQVLETVKNNIEWLNVNRQSIREWFASLP | not soluble
MKAKREALISLFHAIKEEKVDSDIIDLLLLINSIKGIYTTSSCSGRIGILEEPSLGAKPLSRWLIKVHRPMSFEEARDALKRAREGLIFLKSQPPIFHVVAETIENAKLVHEIGLASGFKYTTFKAISSRFLVEINGTEYLTVPLGKDGRIIASDEYLKFAISIGNKMLERGKSKLPRLRDNFEKIKKKLGEDPLFIQLKREILEILEHHHHHH | not soluble
MKALIVDDEPLARNELQYLLNLNDAIDEIEEAENIEETLEKLLYNTFDLIFLDINLMDESGIDLAQKINKMKRSPHIIFATAHEKFAVKAFELNATDYILKPFEKERINQAVNKVDMAKDKSKNKDKTITPKYIDYSDDERAQTHVLPIEVDERIHILNFTDIIALSVNNGITTIDTTKQSYETTETLNHYEKKLPSSLFIKIHRATIVNKEHIQTIEHWFNYTYQLTLTHEFKYQVSRSYMKTFKQQLGLQ | not soluble
MKAPELQIQQWFNSATDLTLADLRGKVIVIEAFQMLCPGCVMHGIPLAQKVRAAFPEDKVAVLGLHTVFEHHEAMTPISLKAFLHEYRIKFPVGVDQPGDGAMPRTMAAYQMRGTPSLLLIDKAGDLRAHHFGDVSELLLGAEIATLLGEAAPSVQKQAGTPQGDANCDNDGCTV | not soluble
MKDSKFPYYFSNALLMLVPRFVYRAQAKRLLSTLTEAEKQYCLERVNYYNKCGQPFTVDSREQSYAKIGEFKKTKGWTYFFDTRQVIRYFPSEFTFNYINGDVTHIPNVPSFIKSRPIHGDNQNSVVLKLNQIRHFKFVDDEMSYHDKKDMVAWRGVGFQPHRCKVIQAFYDHPRCNIGQTRPQEGQPWEKGFMSIEEQLQYKFLLCIEGNDVATNLKWAMSSNSLVIMSKPKYETWFMEGKLEAGIHYVEVQDDYSDLPEKMDYYLANEQEALAIIENAHQWVEQFKDKRKERLISLMVADKYFTLSHQQLEHHHHHH | soluble
